Measurements from article PMC3437207, “G-quadruplex recognition activities of E. Coli MutS”.
Changes are numbered by the printed parent chain.

T1: MutS F36A (Escherichia coli, UniProt P23909 1-853, F36A)
T1 sequence: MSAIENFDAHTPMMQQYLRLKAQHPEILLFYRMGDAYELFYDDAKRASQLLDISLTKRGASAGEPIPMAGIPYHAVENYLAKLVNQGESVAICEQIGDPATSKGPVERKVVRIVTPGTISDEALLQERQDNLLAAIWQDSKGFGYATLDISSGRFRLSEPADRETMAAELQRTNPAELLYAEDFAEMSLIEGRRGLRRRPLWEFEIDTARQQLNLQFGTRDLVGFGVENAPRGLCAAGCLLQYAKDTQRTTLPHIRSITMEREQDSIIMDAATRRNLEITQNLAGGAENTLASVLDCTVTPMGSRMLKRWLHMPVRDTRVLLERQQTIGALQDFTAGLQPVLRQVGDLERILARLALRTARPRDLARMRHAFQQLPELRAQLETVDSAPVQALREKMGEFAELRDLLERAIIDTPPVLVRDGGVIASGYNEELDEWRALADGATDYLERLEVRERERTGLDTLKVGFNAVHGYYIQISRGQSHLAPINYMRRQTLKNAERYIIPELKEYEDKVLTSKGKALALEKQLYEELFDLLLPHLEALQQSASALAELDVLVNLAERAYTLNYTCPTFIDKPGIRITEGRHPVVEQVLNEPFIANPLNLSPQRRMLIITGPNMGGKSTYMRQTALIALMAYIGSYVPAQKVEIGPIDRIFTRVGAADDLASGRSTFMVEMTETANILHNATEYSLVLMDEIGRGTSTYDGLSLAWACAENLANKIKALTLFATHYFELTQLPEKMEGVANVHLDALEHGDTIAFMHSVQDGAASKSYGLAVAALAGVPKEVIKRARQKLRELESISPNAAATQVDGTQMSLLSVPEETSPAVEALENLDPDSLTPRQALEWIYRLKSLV

B1: G-T mismatch heteroduplex (dsDNA)
DNA 1: CTAGCAAGCTTTCGATTCTAGAAATTCGGC
DNA 2: GCCGAATTTCTAGAATTGAAAGCTTGCTAG
B2: Homoduplex (dsDNA)
DNA 1: B1 DNA 1 with G14A
DNA 2: B1 DNA 2

How the values were obtained:
[1] = biological target: T1, MutS F36A; test: EMSA; 19-150 nM protein; no nucleotide; 5 mM Mg2+; 20 mM Tris pH 7.6, 5 mM MgCl2, 1 mM DTT, 50 ug/ml BSA, 10 mM KCl, 200 fmol homoduplex competitor, 10-20 fmol labeled DNA in 20 ul; 6% native PAGE 0.5X TBE with; settings: protein: recombinant; tags: His; chain copies: 2; label: 5' 32P; blunt; single G-T mismatch at position 14 of strand 1
[2] = biological target: T1, MutS F36A; test: EMSA; 38-150 nM protein; 20 mM Tris pH 7.6, 5 mM MgCl2, 1 mM DTT, 50 ug/ml BSA, 10 mM KCl, 200 fmol homoduplex competitor, 10-20 fmol labeled DNA in 20 ul; 6% native PAGE 0.5X TBE with; settings: protein: recombinant; tags: His; chain copies: 2; label: 32P; blunt

Binder | binding result [1] | binding result [2]
B1 | no binding | 
B2 |  | no binding
